From US20040248211A1, “ICAM-related protein” (priority 1992, published 2004)

What was measured:
PBMC [1] = test: PBMC proliferation with or without rIL-2; type: cell-based, human; conditions: immobilized antibody 10 μg/well; with or without rIL-2 10 units/ml; 3 days
Description: Ten μg of ICAM-R monoclonal antibodies ICR-1.1 or ICR-4.2 (or control IgG1 and IgG2) antibodies) in PBS were added per well of 96-well flat bottom tissue culture plates and the plates were incubated for 3-4 hours at 37° C. in a 5% CO2 incubator. After incubation, each well was rinsed 3 times with PBS and freshly obtained PBL were added to a final concentration of 2×10^5 cells/well in a volume of 200 μl. Ten units/ml human recombinant IL-2 (Genzyme, Boston, Mass.) was then added to selected wells. The plates were incubated for a total of 3 days at 37° C. in a 5% CO2 incubator. ^3H-thymidine incorporation by the PMBC was determined as described earlier in this example. […] Positive controls for lymphocyte proliferation included immobilized anti-CD3 and anti-LFA-1 (60.3) monclonal antibodies.

[2] = system: PBMC and CD4+ T-lymphocytes; test: Costimulation of anti-CD3 induced lymphocyte proliferation; type: cell-based, human; conditions: anti-CD3 G19 0.001 μg/well; antibody 10 μg/well; 3 days
Description: Because anti-ICAM-R antibodies with anti-CD3 antibodies costimulated early PBMC activation events, anti-ICAM-R antibodies were tested for the ability to costimulate lymphocyte proliferation induced by immobilized anti-CD3 antibody. In addition, to determine whether anti-ICAM-R antibodies costimulate T-lymphocytes in the absence of accessory cells, anti-ICAM-R antibodies were tested for their ability to costimulate proliferation of pure CD4^+ T-lymphocytes, isolated using negative'selection. To isolate CD4^+ cells PBMC were suspended in tissue culture medium, added to 75 ml tissue culture flasks (Corning) and incubated for 1 hour at 37° C., 5% CO2. Plastic nonadherent cells were then removed from the flask by gently rinsing once with PBS. The nonadherent cell fraction was suspended (10^7 cells/ml) in an antibody cocktail containing 1 μg/ml anti-CD8 antibody (Pharmingen, San Diego, Calif.), 1 μg/ml anti-CD19 (Becton Dickinson), 1 μg/ml anti-CD11b (Becton Dickinson) in 10% FBS-PBS (coating medium), and incubated for 1 hour at 4° C. Unbound antibody was removed by washing twice in coating medium. […] Lymphocyte proliferation was measured by ^3H-thymidine incorporation by the PMBC or CD4^+ cells. […]

ICAM-R peptides = test: Multipin peptide ELISA; type: binding, human; conditions: hybridoma supernatant
Description: The first method for mapping linear epitopes recognized by the ICAM-R specific antibodies of the invention utilized the Multipin Peptide Synthesis System (Chiron Mimotopes Pty. Ltd., Victoria, Australia) which places ten amino acid peptides representing overlapping segments of the protein of interest on the surface of a series of plastic pins. A modified ELISA test is performed to determine binding of a monoclonal antibody to each peptide.
The ELISA to determine binding of the monoclonal antibodies to ICAM-R peptides was run as follows. […] The pins were transferred to plates containing ABTS substrate solution [0.5 mg/ml ABTS, 0.01% weight/volume H2O2 in substrate buffer (17.9 g/L Na2HPO4H2O, 16.8 g/L citric acid monohydrate, pH 4.0)] for 45 minutes at 20° C. with agitation and then the plates were read at 410/495 nm.
Relative reactivity with individual pins was determined after normalizing results for differences in immunoglobulin concentrations in anti-ICAM-R and control hybridoma supernatants and reactivities of positive controls between assays. Mouse IgG levels for each supernatant had been determined by antibody capture ELISA as follows. […] Antibody concentrations of culture supernatant were determined by fitting measured optical densities to the standard curve of the isotype matched control.

PBMC [3] = test: Anti-CD3 stimulated PBMC aggregation; type: cell-based, human; conditions: immobilized antibody

B1: ICR-1.1: anti-ICAM-R monoclonal antibody, IgG2a, domain 1, ATCC HB 11053 (antibody, V domains shown)
VH: QVQLQQSGAELAKPGASVKMSCKASGYTFTVYWMHWVKQRPGQGLEWIGYINPNTDYTEYNQRFQDKATLTADKSSSTAYMQLSSLTSEDSAVYYCARWGGNSYGLDYWGQGTSVTVSS
VL: QIVLTQSPALMSASPGEKVTMTCSASSSVSYIYWYQQKPRSSPKPWIYLTSNLASGVPARFSGSGSGASYSLTISIMEAEDAATYYCQQWKSIPLTFGAGTKLELK
PBMC proliferation (3H-thymidine) (PBMC [1]): did not induce PMBC proliferation even in the presence of rIL2
proliferative response to immobilized anti-CD3 [2]: increased the PBMC and purified CD4^+ cell response to anti-CD3
reactivity with overlapping ten amino acid ICAM-R peptides (ICAM-R peptides): two overlapping peptides spanning amino acids 13-23
inhibition of anti-CD3 stimulated aggregation (PBMC [3]): ~100%
